{"source": "paper PMC11249846", "about": "(Protein Science : A Publication of the Protein Society, 2024)", "binders": {"B1": {"name": "wt (JD‐G/FR) (domain or fragment)", "chain": "not shown"}}, "biological_target": "Hsc70‐T204A (human, UniProt P11142 1-646, T204A)", "sequence (P11142 whole entry T204A)": "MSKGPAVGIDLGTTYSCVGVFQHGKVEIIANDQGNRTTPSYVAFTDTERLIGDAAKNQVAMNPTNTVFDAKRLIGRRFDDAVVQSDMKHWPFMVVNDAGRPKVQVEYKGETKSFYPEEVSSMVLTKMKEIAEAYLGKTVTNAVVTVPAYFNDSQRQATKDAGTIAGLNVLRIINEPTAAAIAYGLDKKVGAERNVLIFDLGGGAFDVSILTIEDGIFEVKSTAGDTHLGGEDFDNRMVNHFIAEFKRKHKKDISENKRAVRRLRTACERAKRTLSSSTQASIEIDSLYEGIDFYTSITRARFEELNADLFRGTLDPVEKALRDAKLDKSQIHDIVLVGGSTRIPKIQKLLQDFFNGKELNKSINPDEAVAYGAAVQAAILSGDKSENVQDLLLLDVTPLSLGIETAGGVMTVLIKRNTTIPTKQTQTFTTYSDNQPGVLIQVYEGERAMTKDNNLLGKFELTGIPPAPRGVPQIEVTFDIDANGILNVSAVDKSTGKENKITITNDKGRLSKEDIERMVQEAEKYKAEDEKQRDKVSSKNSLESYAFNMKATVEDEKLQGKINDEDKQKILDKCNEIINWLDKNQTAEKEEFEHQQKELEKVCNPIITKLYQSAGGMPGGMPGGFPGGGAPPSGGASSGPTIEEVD", "experiment": "NMR titration", "data": [{"binder": "B1", "values": [{"measurement": "binding result", "result": "binds"}]}]}
